Assay results: the supplement of paper PMC10567573

B1: PLD5 (parent)
chain: WIVDKQHVYIGSAGLDWQSLGQMK
B2: BTBD1 (parent)
chain: TSAEIELPDVEPAAFLALLRFLYS

Variants of: B1
Experiment: protein stability index of a GFP-peptide fusion (GPS, HEK-293T) (PSI 1-6); higher = more stable
Settings: c terminus: a fixed tail appended
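Note: lentivirally expressed fusions sorted by FACS into six bins by GFP to DsRed ratio, PSI derived from sequencing read proportions per bin multiplied by bin number.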

Variant	protein stability index
WIVDKQHVYIGSAGLDWQSIGQMK [L20I]	1.97
WIVDKQHVYIGSAGLDWQSPGQMK [L20P]	2.1
WIVDKQHVYIGSAGLDWQSGGQMK [L20G]	2.43
WIVDKQHVYIGSAGLDWQSVGQMK [L20V]	2
WIVDKQHVYIGSAGLDWQSDGQMK [L20D]	1.96
WIVDKQHVYIGSAGLDWQSWGQMK [L20W]	1.85
WIVDKQHVYIGSAGLDWQSAGQMK [L20A]	1.65
WIVDKQHVYIGSAGLDWQSEGQMK [L20E]	2.3
WIVDKQHVYIGSAGLDWQSMGQMK [L20M]	2.19
WIVDKQHVYIGSAGLDWQSFGQMK [L20F]	1.61
WIVDKQHVYIGSAGLDWQSNGQMK [L20N]	2
WIVDKQHVYIGSAGLDWQSSGQMK [L20S]	1.85
WIVDKQHVYIGSAGLDWQSHGQMK [L20H]	1.76
WIVDKQHVYIGSAGLDWQSTGQMK [L20T]	2.01
WIVDKQHVYIGSAGLDWQSKGQMK [L20K]	2.17
WIVDKQHVYIGSAGLDWQSLGQMP [K24P]	2.17
WIVDKQHVYIGSAGLDWQSLGQML [K24L]	2.68
WIVDKQHVYIGSAGLDWQSLGQMD [K24D]	2.02
WIVDKQHVYIGSAGLDWQSLGQMH [K24H]	2.79
WIVDKQHVYIGSAGLDWQSLGQMC [K24C]	3.61
WIVDKQHVYIGSAGLDWQSLGQMM [K24M]	2.58
WIVDKQHVYIGSAGLDWQSLGQMV [K24V]	2.15
WIVDKQHVYIGSAGLDWQSLGQMF [K24F]	2.05
WIVDKQHVYIGSAGLDWQSLGQMT [K24T]	2.23
WIVDKQHVYIGSAGLDWQSLGQMW [K24W]	2.97
WIVDKQHVYIGSAGLDWQSLGQMA [K24A]	2.37

Variant	protein stability index
WIVDKQHVYIGSAGLDWQSLGQMR [K24R]	1.51
WIVDKQHVYIGSAGLDWQSLGQME [K24E]	2.51
WIVDKQHVYIGSAGLDWQSLGQMI [K24I]	1.79
WIVDKQHVYIGSAGLDWQSLGQMS [K24S]	3.37
WIVDKQHVYIGSAGLDWQSLGQMN [K24N]	2.36
WIVDKQHVYIGSAGWDWQSLGQMK [L15W]	1.51
WIVDKQHVYIGSAGRDWQSLGQMK [L15R]	1.55
WIVDKQHVYIGSAGPDWQSLGQMK [L15P]	1.99
WIVDKQHVYIGSAGQDWQSLGQMK [L15Q]	1.47
WIVDKQHVYIGSAGTDWQSLGQMK [L15T]	2
WIVDKQHVYIGSAGSDWQSLGQMK [L15S]	1.7
WIVDKQHVYIGSAGYDWQSLGQMK [L15Y]	1.67
WIVDKQHVYIGSAGVDWQSLGQMK [L15V]	1.54
WIVDKQHVYIGSAGNDWQSLGQMK [L15N]	2.01
WIVDKQHVYIGSAGLDWLSLGQMK [Q18L]	2.15
WIVDKQHVYIGSAGLDWKSLGQMK [Q18K]	1.61
WIVDKQHVYIGSAGLDWTSLGQMK [Q18T]	2.07
WIVDKQHVYIGSAGLDWDSLGQMK [Q18D]	2.42
WIVDKQHVYIGSAGLDWCSLGQMK [Q18C]	3.36
WIVDKQHVYIGSAGLDWHSLGQMK [Q18H]	1.96
WIVDKQHVYIGSAGLDWESLGQMK [Q18E]	1.6
WIVDKQHVYIGSAGLDWPSLGQMK [Q18P]	1.85
WIVDKQHVYIGSAGLDWRSLGQMK [Q18R]	1.47
WIVDKQHVYIGSAGLDWISLGQMK [Q18I]	2.62
WIVDKQHVYIGSAGLDWYSLGQMK [Q18Y]	2.65
WIVDKQHVYIGSAGLDWNSLGQMK [Q18N]	2.1

Variant	protein stability index
WIVDKQHVYIGSAGLDWSSLGQMK [Q18S]	2.16
WIVDKQHVYIGSAGLDWASLGQMK [Q18A]	1.95
WIVDKQHVYIGSAGLDWMSLGQMK [Q18M]	3.07
WIVDKQHVYIGSAGLDWGSLGQMK [Q18G]	2.4
WIVDKQHVYIGSAGLDWVSLGQMK [Q18V]	2.73
WIVDKQHVYIGSAGLDWFSLGQMK [Q18F]	4.52
WIVDKQHVYIGSAGLDWQSLGSMK [Q22S]	1.97
WIVDKQHVYIGSAGLDWQSLGDMK [Q22D]	1.97
WIVDKQHVYIGSAGLDWQSLGRMK [Q22R]	1.37
WIVDKQHVYIGSAGLDWQSLGYMK [Q22Y]	2.35
WIVDKQHVYIGSAGLDWQSLGFMK [Q22F]	2.59
WIVDKQHVYIGSAGLDWQSLGGMK [Q22G]	1.8
WIVDKQHVYIGSAGLDWQSLGHMK [Q22H]	2.74
WIVDKQHVYIGSAGLDWQSLGEMK [Q22E]	1.59
WIVDKQHVYIGSAGLDWQSLGCMK [Q22C]	2.35
WIVDKQHVYIGSAGLDWQSLGTMK [Q22T]	2.97
WIVDKQHVYIGSAGLDWQSLGVMK [Q22V]	1.79
WIVDKQHVYIGSAGLDWQSLGAMK [Q22A]	2.11
WIVDKQHVYIGSAGLDWQSLGWMK [Q22W]	2.11
WIVDKQHVYIGSAGLDWQSLGIMK [Q22I]	1.53
WIVDKQHVYIGSAGLDWQSLGKMK [Q22K]	2.32
WIVDKQHVYIGSAGLDWQSLGLMK [Q22L]	3.9
WIVDKQHVYIGSAGLDWQSLGPMK [Q22P]	2.01
WIVDKQHVYIGSAGLDWQSLGNMK [Q22N]	1.67

Variants of: B2
Experiment: as above
Settings: c terminus: a fixed tail appended

Variant	protein stability index
TSAEIELPDVEGAAFLALLRFLYS [P12G]	1.85
TSAEIELPDVEPAAFLALLRRLYS [F21R]	2.25
TSAEIELPDVKPAAFLALLRFLYS [E11K]	2.75
TSAEIELPDVEPAAFLAVLRFLYS [L18V]	1.37
TSAEIELPDVEPAAFLASLRFLYS [L18S]	1.78
TSAEIYLPDVEPAAFLALLRFLYS [E6Y]	1.74
TSAEIRLPDVEPAAFLALLRFLYS [E6R]	1.84
TSAEIELPDVEPAASLALLRFLYS [F15S]	2.04
TSAEIELPDVEPAAHLALLRFLYS [F15H]	1.67
TSAKIELPDVEPAAFLALLRFLYS [E4K]	1.17
TSAEIELPDFEPAAFLALLRFLYS [V10F]	1.82
TIAEIELPDVEPAAFLALLRFLYS [S2I]	2.07
TWAEIELPDVEPAAFLALLRFLYS [S2W]	1.91
TSAEIELPDVEPAAFLALLRFLMS [Y23M]	2.27
TSAEIELPDVEPAAFLALLRFLVS [Y23V]	2.37
TSAEIELPDVEPAAFLALARFLYS [L19A]	1.9
TSAEIELPDVEPAAFLALLRFLYH [S24H]	1.72
TSDEIELPDVEPAAFLALLRFLYS [A3D]	2.12
